In the DeepSol protein solubility set:

Test: soluble on expression in E. coli; label from the status in PepcDB or PDB records

| Sequence | soluble on expression in E. coli |
| --- | --- |
| SMNSNMGSDSGTMGSDSDEENVAARASPEPELQLRPYQMEVAQPALEGKNIIICLPTGSGKTRVAVYIAKDHLDKKKKASEPGKVIVLVNKVLLVEQLFRKEFQPFLKKWYRVIGLSGDTQLKISFPEVVKSCDIIISTAQILENSLLNLENGEDAGVQLSDFSLIIIDECHHTNKEAVYNNIMRHYLMQKLKNNRLKKENKPVIPLPQILGLTAS | soluble |
| MNYSRIAEAIEYIRAHYKEQPGLDEVAEKVHLSPFHFQRIFTEWAGLEHHHHHH | not soluble |
| MSLASIVSVSSYPPPYLLKQETTTEFAKELFQEDFRDIERLLKSFSNGQIEERQFAVPLDWFRQDHSLQEKNDTYIKLATMFSVEVVRQCLQSNVFLKKPVAEEEIDTIVFVSSSGMATPSIEARMMNELPFSPHTKRVPMWGLGCAGGAAGMSRAYEYCRAFPRANVLVVCVELCSLTFQRQDRTKSNLIGASLFSDGVACALVSGDESDVLGRMKMPTRPLILGSSSTLMPDSEQVMGWDVKDTGLHVVFSRDIPNIIRHWLRPNVERFLETYRLSLEQIEAFIAHPGGRKVLEAYEEALSFSDEMTEYSRDILRHHGNMSSPTVLYVLEKFMKDTRDPGQYGLMAALGPGFCSELVLMQWEAVHEGHHHHHH | soluble |
| MGSDKIHHHHHHMENIAQWVGIDVSKATLDVYIRPLGKAMIVANTESEISNLVKLLLSYSLNLIVLEATGGLETELVIQLQAALLPVALINPRQGRDFAKATGKLAKTDAIDAQILAHFGEAMKPQVLAIQSETARQLSELISRRRQLVEMQTAEKNRRSLTRGQALADIEAHIEYLEEHLKQLNQKIAELTQNNLQWIDKVNLLKSTPGIGQVISTTLVSDLPELGQLTAKQISRLVGVAPINHDSGQHKGKRMINGGRAHVRATLYMGAVVAMVHNPVIKAFYERLIERGKSKKLALTACVHKMLVILNAMVRDNLPWRVTENLQPIANA | not soluble |
| QDKITVTSEKPVAAADVPADAVVVGIEKMKYLTPEVTIKAGETVYWVNGEVMPHNVAFKKGIVGEDAFRGEMMTKDQAYAITFNEAGSYDYFCTPHPFMRGKVIVE | soluble |
| MKERTIQPVNNGLNGNITIPGDKSISHRAVMFGAIAEGTTTIKGFLPGADCLSTISCFKEMGVDIVQNGDEVTVVGKGLEGLQEPKAVLDVGNSGTTIRLMSGILANTPFLSCVQGDTSIAKRPMKRVTNPLKQMGANIDGREEGTFTPLTIRGGDLKAIEYTSPVASAQVKSAILLAGLRAEGVTAVTEPHISRDHTERMLEAFGVKVTREGKTVKLAGGQKLTATDVQVPGDVSSAAFFLVAGAIIPNSKLVLENVGMNPTRTGIIDVLEKMGATFTVEPINEGASEPAANITIETSSLKGIEIGGDIIPRLIDEIPVIALAATQAEGITVIKDAHELKVKETNRIDTVVAELTKLGARIEATDDRMIIYGKSALKGNTVNSYGDHRIGMMLAIAGCIAEGKTIIEDAEAVGVSYPTFFEELQKLAK | not soluble |
| MIVSWRHKGLKAFFETGSSSGIRADHSKRLAHVLAVLNRARTPANVNMPGWRLHPLKGELEGFWSITINANWRIIFRFFDTDVELVDYLDYH | not soluble |
| MVSDAHFQGQFEVELKYRVKNHDAFLNMVKQIEHEVMFENNQESDWFYDTPQRTLTQQGKSLVLREIQPAGIKLWIVKGPEADRCEATNITKLDSAQSMLENMGYEVIQCSKKIRSIFFVGEFHITLDFLDGFGHFAEFAIMTDDETALARYRERLVALAQQFHLSEADREHRSYKEILSALEHHHHHH | soluble |
| MAMSLREELWLWKKEKLAEHVANNLRKKKHEVWIARDREEILERVKELIPEGATVSAGGSLTLADTGVIELLRSGRYNFLDRAAAKTREEVEEIYRKSFWADYYFTSVNAITEDGKLVFLDGNGNRVAAVVFGPKNVVVIASVNKVVKDVEEARERLRYISPMNSKRLNLETPCTKTGFCADCSSPQRICDYFLVVESGVRQPGRFKVILTLEDFGLLEHHHHHH | not soluble |
| MGSDKIHHHHHHMLTDHRCTKYTDCSSCSFYQRDIFKYRLYPKGYVIPQTRCMQNMVFFLVKGEIWLNSEEHPDTTFRGGQFVLQPIGSKVECKVLDYTECIIYLFERPQNICDNRFNKGISIVENERQQPIVMTMVPPIQLFIEGMKLYLNDDLRCSGLMQAKRSEMVYLLNCYYPIKELAAFYAPIYRYSHSFQYFVMQNYQKAKDVETFAQLGGYSVPTFRRIFKDTFGEPAYQWMLKRKCQDIHNDLIMTELSISEICYKYGFESLSNFSHFCRANFGQSPRSVRSLKDENT | not soluble |
| MGSDKIHHHHHHMLLKPDQRLKLDDTDDNLFYAYPRFVTHVDEGFIQQLTDLYRERLQPNTRILDMMSSWVSHLPEEIKFAHVEGHGLNAEELGRNPQLNHYFVQNLNENPGLPLPDQEFDAVLNCVSVQYLQYPEAVFSEIHRILKPGGVAIISFSNRMFYQKAIQAWRDASEPGRLELVKRYFASVPGFSTPEIIARKSTAPNFLQWLGAPGGDPFYAAIAHREGFA | not soluble |
| GSHMRSEFASGNTYALYVRDTLQPGMRVRMLDDYEEISAGDEGEFRQSNNGVPPVQVFWESTGRTYWVHWHMLEILGFEEDIEDMVEADEYQGAVASRVLGRALP | soluble |
| MGSDKIHHHHHHMAKERALTLEALRVMDAIDRRGSFAAAADELGRVPSALSYTMQKLEEELDVVLFDRSGHRTKFTNVGRMLLERGRVLLEAADKLTTDAEALARGWETHLTIVTEALVPTPAFFPLIDKLAAKANTQLAIITEVLAGAWERLEQGRADIVIAPDMHFRSSSEINSRKLYTLMNVYVAAPDHPIHQEPEPLSEVTRVKYRGIAVADTARERPVLTVQLLDKQPRLTVSTIEDKRQALLAGLGVATMPYPMVEKDIAEGRLRVVSPESTSEIDIIMAWRRDSMGEAKSWCLREIPKLFNGK | not soluble |
| MSLNAGKVVQTAKLFQDIHPEERLEKTLVDDRFAALREVIAGRTDGGQSGGGTMQIASLLTMLNEYYTQLTIADSALAAGTLPARITAADKLQLEAAKLPAPLKNILLDLTKQGTRKINAGTGDVLNTQMEAMMGDDCRDAIDGRYPFADSPQEVSAEDFNRIFASGGVLDAFWSKQLAPLADTASDPWRYKPTEGNMTLQGPDLTPFQQAKQIRSVFFNSEGGKKFSWSMQISVVDMDPAIMELVIDIDGQVLRYAHGPDRPLKVTWPGPRNGSMAEITASPRIRQDTSTLLTGGPWALFHLLDAGMVQETAVRGRQLVEYDFDGRRVVLEITAGRDFNPVSRELLQNFSCPARALEGHHHHHH | not soluble |
| GAMDPAVMKIEYYSQVLDMEWGVNVLYPDANRVEEPECEDIPVLYLLHGMSGNHNSWLKRTNVERLLRGTNLIVVMPNTSNGWYTDTQYGFDYYTALAEELPQVLKRFFPNMTSKREKTFIAGLSMGGYGCFKLALTTNRFSHAASFSGALSFQNFSPESQNLGSPAYWRGVFGEIRDWTTSPYSLESLAKKSDKKTKLWAWCGEQDFLYEANNLAVKNLKKLGFDVTYSHSAGTHEWYYWEKQLEVFLTTLPIDFKLEERLT | soluble |
| MYRTHYSSEITEELNGQKVKVAGWVWEVKDLGGIKFLWIRDRDGIVQITAPKKKVDPELFKLIPKLRSEDVVAVEGVVNFTPKAKLGFEILPEKIVVLNRAETPLPLDPTGKVKAELDTRLNNRFMDLRRPEVMAIFKIRSSVFKAVRDFFHENGFIEIHTPKIIATATEGGTELFPMKYFEEDAFLAESPQLYKEIMMASGLDRVYEIAPIFRAEEHNTTRHLNEAWSIDSEMAFIEDEEEVMSFLERLVAHAINYVREHNAKELDILNFELEEPKLPFPRVSYDKALEILGDLGKEIPWGEDIDTEGERLLGKYMMENENAPLYFLYQYPSEAKPFYIMKYDNKPEICRAFDLEYRGVEISSGGQREHRHDILVEQIKEKGLNPESFEFYLKAFRYGMPPHGGFGLGAERLIKQMLDLPNIREVILFPRDRRRLTP | soluble |
